Consider one substance from patent publication US20200190159A1.

Test [1] has as its target recombinant tetranectin (TN) (human) (UniProt P05452). Put plainly: BIAcore SPR; recombinant TN immobilized on the sensor chip, HMGB1 as analyte at 31, 62, 125, 250, 500 and 1000 nM.
For test [2] the target is unchanged. The test is described as follows: SPR (BIAcore), TN immobilized on CM5 chip, HMGB1 as analyte at various concentrations; apparent Kd. For orientation: SPR reads the build-up and loss of mass on a sensor chip optically.

Sequence of recombinant tetranectin (TN) (human) (P05452 22-202): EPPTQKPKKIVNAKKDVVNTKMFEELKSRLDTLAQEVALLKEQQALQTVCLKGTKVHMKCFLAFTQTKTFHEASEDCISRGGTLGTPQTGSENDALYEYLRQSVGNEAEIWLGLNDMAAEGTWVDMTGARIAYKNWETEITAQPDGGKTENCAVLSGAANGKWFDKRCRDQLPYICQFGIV

As for “high mobility group box-1 (HMGB1) protein”, the Kd turned out to be 0.52 µM in test [1] and 0.57 µM in test [2].
